Earlier results, collected in paper PMC10231660.
Like-named read-outs stand apart in the source and are kept apart here. Blank lines part the entries; values can stand above or below the substance they belong to.

Columns and labels:
ZNRF3 (Homo sapiens) [1] = molecular target: ZNRF3 (Homo sapiens) (UniProt Q9ULT6)
ZNRF3 (Homo sapiens) [2] = molecular target: ZNRF3 (Homo sapiens) (UniProt Q9ULT6); remark: listed apart in the source
ZNRF3 (Homo sapiens) [3] = molecular target: ZNRF3 (Homo sapiens) (UniProt Q9ULT6); remark: listed apart in the source
ZNRF3 (Homo sapiens) [4] = molecular target: ZNRF3 (Homo sapiens) (UniProt Q9ULT6); remark: listed apart in the source
[5] = molecular target: BMPR1A ECD (Homo sapiens) (UniProt P36894)
Chain of UniProt P36894 (P36894 24-152): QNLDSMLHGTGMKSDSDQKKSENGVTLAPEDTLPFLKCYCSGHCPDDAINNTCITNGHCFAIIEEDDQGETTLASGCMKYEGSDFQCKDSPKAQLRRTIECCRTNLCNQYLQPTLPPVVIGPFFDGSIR

MC1R = MC1R (UniProt Q01726)
Chain of UniProt Q01726 (Q01726 whole entry): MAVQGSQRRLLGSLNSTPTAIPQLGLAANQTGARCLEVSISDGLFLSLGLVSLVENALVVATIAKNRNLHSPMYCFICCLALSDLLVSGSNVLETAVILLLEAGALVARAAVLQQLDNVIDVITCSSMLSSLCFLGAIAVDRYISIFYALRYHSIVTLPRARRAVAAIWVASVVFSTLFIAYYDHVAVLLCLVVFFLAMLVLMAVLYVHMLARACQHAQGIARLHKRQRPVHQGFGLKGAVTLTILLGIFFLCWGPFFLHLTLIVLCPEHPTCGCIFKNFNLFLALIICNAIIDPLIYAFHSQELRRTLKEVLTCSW

Chain of UniProt Q9ULT6 (Q9ULT6 56-219): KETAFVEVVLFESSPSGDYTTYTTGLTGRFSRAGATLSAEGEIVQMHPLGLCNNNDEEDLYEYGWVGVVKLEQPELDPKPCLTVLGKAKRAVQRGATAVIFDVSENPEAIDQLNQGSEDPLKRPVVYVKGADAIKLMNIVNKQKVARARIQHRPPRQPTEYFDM

Substance: RSPO3 FU1 (from UniProt Q9BXY4)
Kd (ZNRF3 (Homo sapiens) [2]): 0.06 µM

Substance: RSPO4 FU1 (from UniProt Q2I0M5)
Kd (ZNRF3 (Homo sapiens) [4]): 300 µM

Substance: ASP CTD (from UniProt P42127)
Kd (MC1R): 0.001 µM

Next, values leading:

Kd (ZNRF3 (Homo sapiens) [1]): 0.025 µM
Substance: RSPO2 FU1 (from UniProt Q6UXX9)

Kd (ZNRF3 (Homo sapiens) [3]): 6.8 µM
Substance: RSPO1 FU1 (from UniProt Q2MKA7)

Kd [5]: 0.0048 µM
Substance: RSPO2 (from UniProt Q6UXX9)
